For the assay, the target named is C8-αGFP chimera (anti-GFP CDRs grafted into the C8WT scaffold) fused to mCherry. The assay is described as follows: SEC; gel filtration after IMAC on Superdex 75 10/30 in PBS, pH 7.4, 1 mM DTT. A general note: In gel filtration, larger molecules generally elute earlier.

B1: C8-αGFP chimera (anti-GFP CDRs grafted into the C8WT scaffold) fused to mCherry (VHH)
VHH: DVQLQASGGGLAQPGGSLRLSCAASGFPVNRYSMYWVRQAPGKGLEWVSSISSAGDRSSYYADSVKGRFTISRDNAKNTLYLQMNSLKLEDTALYFCAVNVGFEGQGTQVTVSS
As to B1, the stoichiometry N (commonly a count of units in the complex or per binding partner) came out at 2.

These data come from publication PMC7911018.
